According to paper PMC3520067:

Target: H3K4Me3 peptide
Experiment: ITC

Row | Kd | Substance
1 | 600 nM | MORC3 CW domain (domain or fragment)
2 | 1100 nM | recombinant SPIN1 (from UniProt Q9Y657 1-262) (natural protein)
